{
  "source": "paper PMC2873925",
  "key": {"[1]": {"target": "Neisseria meningitidis Opc protein (outer membrane adhesin), on acapsulate Opc+ bacteria of serogroup A strain C751 (Neisseria meningitidis serogroup A strain C751) (UniProt Q7DDI3)", "experiment": "depletion from serum by sequential adsorption with whole bacteria, immuno-dot blot of the serum; a serum sample adsorbed sequentially with three fresh live bacterial suspensions, one hour each; remaining activated Vn (mAb 8E6), total Vn and Fn (polyclonal antibodies) by immuno-dot blot and densitometry"}, "[2]": {"target": "Neisseria meningitidis Opc protein, on capsulate Opc+ bacteria of serogroup B strain MC58 (Neisseria meningitidis serogroup B strain MC58)", "experiment": "depletion from serum by sequential adsorption with whole bacteria, immuno-dot blot of the serum; a serum sample adsorbed sequentially with three fresh live bacterial suspensions, one hour each; remaining activated Vn (mAb 8E6), total Vn and Fn (polyclonal antibodies) by immuno-dot blot and densitometry"}, "[3]": {"target": "Neisseria meningitidis Opc protein (outer membrane adhesin), on acapsulate Opc+ bacteria of serogroup A strain C751 (Neisseria meningitidis serogroup A strain C751) (UniProt Q7DDI3)"}, "[4]": {"target": "Neisseria meningitidis Opc protein, on capsulate Opc+ bacteria of serogroup B strain MC58 (Neisseria meningitidis serogroup B strain MC58)"}},
  "data": [
    {"substance": "fibronectin (human), of normal human serum and purified plasma fibronectin, P02751 32-2477 (natural protein)", "values": [
      {"measurement": "percent depleted from serum after three adsorptions", "setting": "[1]", "result": 20, "unit": "%"}
    ]},
    {"substance": "vitronectin of normal human serum (total Vn, detected with polyclonal anti-Vn) (natural protein)", "values": [
      {"measurement": "percent depleted from serum after three adsorptions", "setting": "[1]", "result": 25, "unit": "%"}
    ]},
    {"substance": "activated vitronectin (human), from normal human serum, purified by heparin-sepharose chromatography (natural protein)", "values": [
      {"measurement": "percent depleted from serum after two adsorptions", "setting": "[1]", "result": "> 75", "unit": "%"},
      {"measurement": "percent depleted from serum after three adsorptions", "setting": "[2]", "result": 81, "unit": "%"}
    ]},
    {"substance": "VA-21S, synthetic peptide of vitronectin residues 48-68 sulphated at residues 56 and 59", "values": [
      {"measurement": "inhibition by VA-21S of VA-26S-mediated adhesion of C751 Opc+ Nm to HBMECs (data not illustrated)", "setting": "[3]", "result": 80, "unit": "%"},
      {"measurement": "inhibition by VA-21S of VA-26S-mediated invasion of HBMECs by C751 Opc+ Nm (data not illustrated)", "setting": "[3]", "result": 100, "unit": "%"},
      {"measurement": "inhibition by VA-21S of VA-26S-mediated adhesion of piliated capsulate Opc+ MC58 to HBMECs (data not illustrated)", "setting": "[4]", "result": 40, "unit": "%"},
      {"measurement": "inhibition by VA-21S of VA-26S-mediated invasion of HBMECs by piliated capsulate Opc+ MC58 (data not illustrated)", "setting": "[4]", "result": "> 80", "unit": "%"}
    ]}
  ]
}
